Test results published in patent EP1720907B1 (MorphoSys AG, dated 2015).
Several values for one entry are separate records, joined by “and”; a condition that tells them apart may be missing. Equal values may be shown once.

T1: human CD38 (human, UniProt P28907 1-300)
T1 sequence: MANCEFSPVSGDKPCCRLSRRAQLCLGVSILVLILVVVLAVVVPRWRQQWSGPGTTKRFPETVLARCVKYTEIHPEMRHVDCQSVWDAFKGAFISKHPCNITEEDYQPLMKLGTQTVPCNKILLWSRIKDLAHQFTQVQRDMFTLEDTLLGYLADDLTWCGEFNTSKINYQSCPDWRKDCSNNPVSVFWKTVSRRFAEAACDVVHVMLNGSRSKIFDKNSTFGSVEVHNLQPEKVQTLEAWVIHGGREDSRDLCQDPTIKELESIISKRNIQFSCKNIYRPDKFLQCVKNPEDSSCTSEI


The molecules below were run against T1, human CD38 (assay: cell-based or functional assay).

Molecule	ADCC EC50 [nM], LP-1 [nM]	ADCC EC50 [nM], RPMI8226 [nM]	CDC EC50 [nM], CHO-transfectants
Chimeric OKT10 (antibody)	5.23	4.1	
MOR03077 human IgG1 (antibody, V domains shown) VH: QVQLVQSGAEVKKPGASVKVSCKASGYTFTSYSINWVRQAPGQGLEWMGYIDPNRGNTNYAQKFQGRVTMTRDTSISTAYMELSSLRSEDTAVYYCAREYIYFIHGMLDFWGQGTLVTVSS VL: DIVMTQSPLSLPVTPGEPASISCRSSQSLLFIDGNNYLNWYLQKPGQSPQLLIYLGSNRASGVPDRFSGSGSGTDFTLKISRVEAEDVGVYYCQQYSSKSATFGQGTKVEIKR	0.6	0.08	0.8 nM and 0.94 nM
MOR03080 human IgG1 (antibody, V domains shown) VH: QVQLVESGGGLVQPGGSLRLSCAASGFTFSSYGMHWVRQAPGKGLEWVSNIYSDGSNTFYADSVKGRFTISRDNSKNTLYLQMNSLRAEDTAVYYCARNMYRWPFHYFFDYWGQGTLVTVSS VL: DIELTQPPSVSVAPGQTARISCSGDNIGNKYVSWYQQKPGQAPVVVIYGDNNRPSGIPERFSGSNSGNTATLTISGTQAEDEADYYCSSYDSSYFVFGGGTKLTVLG	0.17	0.05	3.2 nM and 2.93 nM

Further lines, results first:

ADCC EC50 [nM], LP-1 [nM]	ADCC EC50 [nM], RPMI8226 [nM]	CDC EC50 [nM], CHO-transfectants	Molecule
1	0.28	10.9 nM and 13.6 nM	MOR03100 human IgG1 (antibody, V domains shown) VH: QVQLVESGGGLVQPGGSLRLSCAASGFTFSSNGMSWVRQAPGKGLEWVSNISYLSSSTYYADSVKGRFTISRDNSKNTLYLQMNSLRAEDTAVYYCARFYGYFNYADVWGQGTLVTVSS VL: DIELTQPPSVSVAPGQTARISCSGDNIGHYYASWYQQKPGQAPVLVIYRDNDRPSGIPERFSGSNSGNTATLTISGTQAEDEADYYCQSYDYLHDFVFGGGTKLTVLG
0.09	0.04		MOR03079 human IgG1 (antibody, V domains shown) VH: QVQLVESGGGLVQPGGSLRLSCAASGFTFSNYGMHWVRQAPGKGLEWVSNIRSDGSWTYYADSVKGRFTISRDNSKNTLYLQMNSLRAEDTAVYYCARRYWSKSHASVTDYWGQGTLVTVSS VL: DIQMTQSPSSLSASVGDRVTITCRASQDISAFLNWYQQKPGKAPKLLIYKVSNLQSGVPSRFSGSGSGTDFTLTISSLQPEDFATYYCQQAYSGSITFGQGTKVEIKR
